# Measurements from the RNAGym collection of RNA variant scans (doi:10.1073/pnas.2313332121).
# Variants at the floor of the assay were thinned out.
# B1: TPR 5TU (parent)
# chain: GGAUCUUCUCGAUCUAACAAAAAAGACAAAUCUGCCACAAAGCUUGAGAGCAUCUUCGGAUGCAGAGGCGGCAGCCUUCGGUGGCGCGAUAGCGCCAACGUUCUCAACUAUGACACGCAAAACGCGUGCUCCGUUGAAUGGAGUUUAUCAUG
# Variants of: B1
# Experiment: polymerase ribozyme fitness, log enrichment relative to wild type (log ratio); higher = more active; in vitro selection for triplet polymerase activity
# How it was run: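 A heterodimeric triplet polymerase ribozyme had each of its subunits mutagenized by PCR into a library, which was transcribed. One round of in vitro selection, done in triplicate, annealed each library with a biotinylated primer, its partner subunit and triplets, then incubated it frozen at −7 °C before gel excision of extended constructs, streptavidin-bead capture and RT-PCR. Fitness is the logarithm of genotype enrichment relative to wild-type enrichment, based on Illumina sequencing of inputs and outputs and inverse-variance-weighted replicate averages. A base-2 logarithm is used, and genotypes were kept only with ≥10 input reads and ≥1 read per output.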
row,Variant,polymerase ribozyme fitness (log ratio)
1,A26C A52U A89C,-3.85
2,A26G U53A G88U G92U C118A A147G,≤ -4.2
3,A26G U55A,-2.03
4,A26C G34C A52C C75A G80C,≤ -4.2
5,A26U A39C A49G G128A A138G,≤ -4.2
6,A26C A47C U77C U102C G117C,≤ -4.2
7,A26G C43U U45A G59C G88A,≤ -4.2
8,A26C C96A A120G G124U,-2.02
9,A26U A47C A49C G80C C85A A113G A150U,≤ -4.2
10,A26C U144G,-0.859
11,A26C U144C,-2.23
12,A26C U53A U56A C114U,-3.79
13,A26G A91U U104G A122C,≤ -4.2
14,A26G U77A C87U A89C,≤ -4.2
15,A26U A41G G62U,-1.6
16,A26G C69U C79U C87U A91U,≤ -4.2
17,A26G C95U C96U,-4.16
18,A26C C93G U139G G140U,-4.11
19,A26C A29C G65A C87G A97G A142G,≤ -4.2
20,A26C A73G C105U U146G,-3.66
21,A26G C32U U33G A49U A91U,≤ -4.2
22,A26G C72U U78G C85G,≤ -4.2
23,A26C C76A,-3.75
24,A26U C51U A64U C125U,≤ -4.2

row,Variant,polymerase ribozyme fitness (log ratio)
1,A26G C38A A60U A64C C76U,≤ -4.2
2,A26U C35G C69A G92A C96A A97G A120C,≤ -4.2
3,A26G U78C,-3.95
4,A26C G92C U104C C108U A115C,≤ -4.2
5,A26C A41G C54U C75G G88A A107G,≤ -4.2
6,A26G C36A,≤ -4.2
7,A26C C38G G68C C76U G84U U139G,≤ -4.2
8,A26C C35U U55A C76U C87G G92U A98G,-3.11
9,A26G C35U,-3.06
10,A26C C76U G81U G86A U144C,-3.81
11,G25U U61G,-2.3
12,G25U U61A,-3.25
13,A26C C51G G65A G74C G81U C93G A119U C132U G141C,≤ -4.2
14,A26G A52G U90G U135A G136C,≤ -4.2
15,A26C C32G C57G,≤ -4.2
16,A26C U45G C63U C75U G80C G112C U144G,≤ -4.2
17,A26C G84C C108G G133U,≤ -4.2
18,A26C G84C C108G G133A,≤ -4.2
19,A26C C93G C114U,-4.19
20,A26G U33C C85U,≤ -4.2
21,A26C G81A C85G C87A G141U C149G,≤ -4.2
22,A26C C85U,-1.86
23,A26C A41C C57G,-3.4
24,A26C G92C,-2.71

row,Variant,polymerase ribozyme fitness (log ratio)
1,A26G A89U,-4.16
2,G25U U55A C72G C93G G140A,≤ -4.2
3,A26U A37C A47G C85U U90A U145A U146C,≤ -4.2
4,A26U A60G C69A A97U C114U U135C,≤ -4.2
5,A26U C35U G42C C108A A115C G133U U135A A142G U146C A147G,≤ -4.2
6,A26U A41C G71U C95A,≤ -4.2
7,A26C C96U G124A,-1.67
8,A26G G59A A89C C105U,≤ -4.2
9,A26U C32G G86A C105U,≤ -4.2
10,A26U A49C U111G,≤ -4.2
11,A26U A37C C95G A107C G152U,≤ -4.2
12,A26G G48A,≤ -4.2
13,A26U C51U C72U A73U C85A C99G G100C U111G,≤ -4.2
14,A26C G86A U102A G128U C131G,≤ -4.2
15,A26U A29C A47G A49U G59C G65A G117C U139G,≤ -4.2
16,A26C A52C C69U G100A C125A,≤ -4.2
17,A26G G81A C95U,≤ -4.2
18,A26U A49G C57A G88U G92A G100A A106U C125U,≤ -4.2
19,A26C C38U G86U U144G,-3.75
20,A26C C38U C69A U77G G88U,≤ -4.2
21,A26C,-1.49
22,A26G,-2.11
23,A26U,-1.21
24,A26U C36U U44A C57A G68C C118A U135G,≤ -4.2

row,Variant,polymerase ribozyme fitness (log ratio)
1,A26C C93A,-3.21
2,A26U A28C A52C G58A U139G A147C,≤ -4.2
3,A26C A41C A49C G62C A138G,≤ -4.2
4,A26C G65A C79A A89U A97C G117A,≤ -4.2
5,A26U A49U G59U,≤ -4.2
6,A26C G88U G92U G117U,≤ -4.2
7,A26C U78C G88A C108G C114G C149G,≤ -4.2
8,A26C U55A C75A G80C G94A C105A,≤ -4.2
9,A26G A39G C85U,≤ -4.2
10,A26G C36U G65C A91G U111G C149A,≤ -4.2
11,A26C G50U C54U C96G,-3.92
12,A26C A47C A52C G58C G71A G100C C116A,≤ -4.2
13,A26G A49G C57U G59A C72A,≤ -4.2
14,A26U C51U A52U C54G G86U C99A A107C C123G,≤ -4.2
15,A26C A64G G83U C85G A115G,≤ -4.2
16,A26C C27G C51G G83C A89C A138G A142U,≤ -4.2
17,A26U C32G U45C G50C U53G G84A C99U A137G,≤ -4.2
18,A26U A39U G58A A66C C93U C149G,≤ -4.2
19,A26U C35U C87A G124C,≤ -4.2
20,A26G C32A A39C C54A A150G,≤ -4.2
21,A26U C35U U55A C96G G124A,≤ -4.2
22,A26C G83C,-2.82
23,A26U A39C U45A A60C U61G G83C U102C U111G,≤ -4.2
24,A26U A98G U127G,≤ -4.2

row,Variant,polymerase ribozyme fitness (log ratio)
1,A26U A147U,-0.0486
2,A26U C36A G68C G86U G88C,≤ -4.2
3,A26C C57A A60C G88A U109G A110G C118G,-3.98
4,A26C A47G C63A A91C A97U A98G A138U,≤ -4.2
5,A26C A30U C79U,≤ -4.2
6,A26U C35U A47C C54G A64G A66U C93A A142G,≤ -4.2
7,A26G U145A,-3.59
8,A26U C51U C114U C129U,≤ -4.2
9,A26U A49U A137G,≤ -4.2
10,A26U C27U U33A G34A U56A C57U C76A C85G G88A U127C,≤ -4.2
11,A26U C43U U53A G100C,≤ -4.2
12,A26C G100U,-4
13,A26U A49G C93U G124C U135G A138G,≤ -4.2
14,A26C A29U C36A G42A U61A G70A A73C,≤ -4.2
15,A26U A91G G140C C149A,≤ -4.2
16,A26G C75U C96U,≤ -4.2
17,A26C C27U,-2.8
18,A26U A30U A37C U61A A66C G67C C69U C87A C105A C125U,≤ -4.2
19,A26C G117C,-2.51
20,A26C C32G C54U C87G C95U,-3.91
21,A26C A52C U53A,≤ -4.2
22,A26C G81A C87U G88C G124C G136U G140C,≤ -4.2
23,G25U U61G C99G A106G A107U A150G,≤ -4.2
24,A26U A40U A91U A122U,≤ -4.2

row,Variant,polymerase ribozyme fitness (log ratio)
1,A26C A49C,≤ -4.2
2,A26C U56A A60U U82G,-2.45
3,A26U A28U C32A A52U A73U A91U G92A A113G U148A G152U,≤ -4.2
4,A26U C43A A49G G58C C93U G112A,≤ -4.2
5,A26G A40C C63U G80U G92A G126U A142U,≤ -4.2
6,A26C U82A C95A,-2
7,A26U A49G C95U,-3.28
8,G25U U45A,≤ -4.2
9,A26C G83A G126A A137G,≤ -4.2
10,A26G A89C A97C G143C,≤ -4.2
11,A26G U44A C54U C87A C99U U111G G143U,≤ -4.2
12,A26G C99U,-3.69
13,A26C U44A U55G G86A G88C,≤ -4.2
14,A26C C43U A52G G71C A97G,≤ -4.2
15,A26C A107G,≤ -4.2
16,A26U A49U G68U C72U G84A G86U G112A A122G,≤ -4.2
17,A26C C36A U44G U55A G140C,-4.19
18,A26U A89G,-3.26
19,A26G G92U,-3.31
20,A26U A49U C87A U134G,≤ -4.2
21,A26C G42A A107C,≤ -4.2
22,G25U U55G A122U,-3.1
23,A26C A52G,-1.25
24,A26C C79A C87A U134C A150U,≤ -4.2

row,Variant,polymerase ribozyme fitness (log ratio)
1,G25U U55A C85A G140C,≤ -4.2
2,A26U A40U A91U A121U,≤ -4.2
3,A26U C51A C54A C57U U90C C93G,≤ -4.2
4,A26C C32A U53G U56A C75U U104A U111C A120G,≤ -4.2
5,A26G A29C C79A G100A,≤ -4.2
6,A26C U134G,-4.1
7,A26U A91G A115G A150C,≤ -4.2
8,A26G A49C A89U G92A U102G G140U,≤ -4.2
9,A26U A40C G68C G71U U82A A119C C125A A150C,≤ -4.2
10,A26C A52U C54U G58A G71A G74C C87U C108A,≤ -4.2
11,A26C A91G A121C U139C,≤ -4.2
12,A26C C57G G80A,-4.09
13,A26C C35U U44A C57U G58U C85A,≤ -4.2
14,A26C C75U G92C,≤ -4.2
15,A26G A30C A39C A47U C76U C93U A97G G133A G140U G141A,-4.02
16,A26U A60U U111G G141U,-3.78
17,A26G A52C G59C A64C,≤ -4.2
18,A26C G42A G46C A49G A52C C54U A91U C99U U109G C132U G140U,≤ -4.2
19,A26U C36G U55A G58C C105U,≤ -4.2
20,A26C U82A A137G,-2.93
21,A26G A28G C87A C105G C108U C125A,≤ -4.2
22,G25U U148A,≤ -4.2
23,A26C A30C U45A C54G G92A U104G A147G,≤ -4.2
